The source of these data is patent publication US11844843 (DYNE THERAPEUTICS, dated 2023).

Broadly, the EC50 is the concentration giving half of the maximal effect. The term Kd denotes the constant that tells how readily two partners part at equilibrium. For orientation: koff means the rate constant with which the complex falls apart. Broadly, the kon is a measure of how fast the partners come together.

One assay has as its target T1, recombinant rat TfR1 (rat, UniProt Q99376 89-761, limits assumed).
T1 construct: Recombinant protein coated on ELISA plates
As to the kind of experiment: ELISA on plate-coated recombinant rat TfR1, fluorescent anti-(H+L) IgG secondary. As for the experimental part: Serial dilutions of the Fab were added to plates precoated with recombinant human, cynomolgus monkey, mouse, or rat TfR1. After a short incubation, binding of the Fab was quantified by addition of a fluorescently tagged anti-(H+L) IgG secondary antibody and measurement of fluorescence intensity at 495 nm excitation and 520 nm emission.
For orientation: An ELISA detects its analyte on a solid surface through an enzyme-linked reagent.

Assay [1] addresses T2, recombinant human TfR1 (transferrin receptor protein 1) (human, UniProt P02786 89-760).
T2 construct: Recombinant protein in SPR and ELISA; they were assigned to this molecule; also called hTfR1; huTfR1
Put plainly: ELISA on hTfR1, unconjugated Fab, % normalized RFUs.

Assay [2] concerns the target T3, recombinant cynomolgus monkey (Macaca fascicularis) TfR1 (cynomolgus monkey (Macaca fascicularis), UniProt Q5RDH6 87-760 (Pongo abelii entry), limits assumed).
T3 construct: Recombinant protein; also called cTfR1; cyTfR1
T3 chain: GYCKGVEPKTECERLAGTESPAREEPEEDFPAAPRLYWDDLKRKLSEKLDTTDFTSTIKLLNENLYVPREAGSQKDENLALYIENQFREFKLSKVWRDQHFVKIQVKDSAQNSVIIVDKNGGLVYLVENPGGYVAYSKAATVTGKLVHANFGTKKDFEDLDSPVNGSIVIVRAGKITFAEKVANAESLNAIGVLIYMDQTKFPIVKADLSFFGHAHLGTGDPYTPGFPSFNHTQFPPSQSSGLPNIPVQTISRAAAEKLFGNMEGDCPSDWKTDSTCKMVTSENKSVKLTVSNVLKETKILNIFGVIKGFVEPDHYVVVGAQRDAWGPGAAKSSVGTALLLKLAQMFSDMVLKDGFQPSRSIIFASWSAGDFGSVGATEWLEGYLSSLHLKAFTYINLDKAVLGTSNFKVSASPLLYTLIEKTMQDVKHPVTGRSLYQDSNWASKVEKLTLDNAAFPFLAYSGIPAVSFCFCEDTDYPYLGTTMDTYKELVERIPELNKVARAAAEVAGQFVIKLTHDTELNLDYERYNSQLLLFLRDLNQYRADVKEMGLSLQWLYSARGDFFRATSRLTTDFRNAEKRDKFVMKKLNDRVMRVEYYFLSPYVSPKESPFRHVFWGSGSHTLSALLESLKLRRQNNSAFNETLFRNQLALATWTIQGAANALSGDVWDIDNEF
As to the kind of experiment: Table 14, unconjugated Fab, d0; method not named (values equal ELISA row of Table 13).

Assay [3] has as its target T2, recombinant human TfR1 (transferrin …). The assay is described as above.
Assay [4] has as its target T3, recombinant cynomolgus monkey (Macaca …). As to the kind of experiment: surface plasmon resonance. Background: Surface plasmon resonance follows binding to a sensor surface in real time, without labels.
The target of assay [5] is T2, recombinant human TfR1 (transferrin …). Put plainly: surface plasmon resonance.
The target is the same in assay [6]. As to the kind of experiment: kinetic analysis (Biacore), Table 7; TfR1 species not stated.
Assay [7] has the same target. Put plainly: ELISA on plate-coated recombinant hTfR1, fluorescent anti-(H+L) IgG-A488 detection, % normalized RFUs. Here is the method:
(§1) To measure binding of humanized anti-TfR antibodies to TfR1, ELISAs were conducted. High binding, black, flat bottom, 96 well plates (Corning #3925) were first coated with 100 μL/well of recombinant huTfR1 at 1 μg/mL in PBS and incubated at 4° C. overnight. Wells were emptied and residual liquid was removed. Blocking was conducted by adding 200 μL of 1% BSA (w/w) in PBS to each well. Blocking was allowed to proceed for 2 hours at room temperature on a shaker at 30) rpm. After blocking, liquid was removed and wells were washed three times with 300 μL of TBST. Anti-TfR1 antibodies were then added in 0.5% BSA/TBST in triplicate in an 8 point serial dilution (dilution range 5 μg/mL-5 ng/mL). A positive control and isotype controls were also included on the ELISA plate. The plate was incubated at room temperature on an orbital shaker for 60 minutes at 300 rpm, and the plate was washed three times with 300 μL of TBST. Anti-(H+L)IgG-A488 (1:500) (Invitrogen #A11013) was diluted in 0.5% BSA in TBST, and 100 μL was added to each well. The plate was then allowed to incubate at room temperature for 60 minutes at 300 rpm on orbital shaker. The liquid was removed and the plate was washed four times with 300 μL of TBST. […] Data was recorded and analyzed for $EC50$. […]

Assay [8] has as its target T3, recombinant cynomolgus monkey (Macaca …). As to the kind of experiment: ELISA on plate-coated recombinant cTfR1, fluorescent anti-(H+L) IgG-A488 detection, % normalized RFUs. As for the experimental part: as §1

T1 sequence (Q99376 89-761 limits assumed): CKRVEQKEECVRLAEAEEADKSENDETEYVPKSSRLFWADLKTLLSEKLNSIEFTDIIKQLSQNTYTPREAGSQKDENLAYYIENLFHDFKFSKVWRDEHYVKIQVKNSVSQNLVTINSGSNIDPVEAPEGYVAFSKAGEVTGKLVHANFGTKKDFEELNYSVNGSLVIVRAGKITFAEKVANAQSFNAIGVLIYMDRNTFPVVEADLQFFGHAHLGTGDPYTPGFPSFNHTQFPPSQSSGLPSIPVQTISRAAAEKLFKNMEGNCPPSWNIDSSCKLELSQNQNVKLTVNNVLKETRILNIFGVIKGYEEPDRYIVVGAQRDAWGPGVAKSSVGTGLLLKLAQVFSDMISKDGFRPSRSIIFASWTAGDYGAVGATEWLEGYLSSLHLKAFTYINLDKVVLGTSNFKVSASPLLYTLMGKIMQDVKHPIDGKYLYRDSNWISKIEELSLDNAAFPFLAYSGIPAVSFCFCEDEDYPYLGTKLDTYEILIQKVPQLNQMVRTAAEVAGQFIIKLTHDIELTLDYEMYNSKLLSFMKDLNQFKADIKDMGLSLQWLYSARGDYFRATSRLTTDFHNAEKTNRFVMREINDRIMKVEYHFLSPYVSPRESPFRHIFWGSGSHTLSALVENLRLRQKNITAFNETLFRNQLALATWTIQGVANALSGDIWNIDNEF

B1: humanized anti-TfR Fab 3M12 VH4/Vκ3 (Fab, V domains shown)
VH: QVQLQESGPGLVKPSQTLSLTCTVTGYSITSGYYWNWIRQPPGKGLEWIGYITFDGANNYNPSLKNRVSISRDTSKNQFSLKLSSVTAEDTATYYCTRSSYDYDVLDYWGQGTTVTVSS
VL: DIQMTQSPSSLSASVGDRVTITCRASQDISNFLNWYQQKPGQPVKLLIYYTSRLHSGVPSRFSGSGSGTDFTLTISSLQPEDFATYYCQQGHTLPYTFGQGTKLEIKR
notes: also called 3M12 (VH4/Vk3); anti-TfR Fab 3M12 VH4/Vk3
For B1, in the assay with recombinant rat TfR1, the binding result was “no binding (tested: 500 nM)”. In addition, the values for the EC50 in [1], in [7] and in assay [8] were 2.1 nM, 2.1 nM and 9.9 nM, respectively. Besides, the Binding affinity in assay [2] is 2.2 nM; in assay [3] it was 0.5 nM. Further, the Kd in [4] came out at 5.18 nM; in assay [5], 0.768 nM; in assay [6], 0.341 nM. The koff in assay [4] was 0.000476 s⁻¹; in [5], 0.000127 s⁻¹; in assay [6], 8.61e-05 s⁻¹. The kon in assay [4] was found to be 91900 M⁻¹ s⁻¹; in [5], 166000 M⁻¹ s⁻¹; in assay [6] it was 252000 M⁻¹ s⁻¹.
